{
  "source": "patent US9012166B2",
  "about": "“Method for assaying histone methylation enzyme activity” (Kyushu Institute of Technology, priority 2010, dated 2015)",
  "note": "*: point of attachment. AMC = Cc1cc(=O)oc2cc(N*)ccc12",
  "data": [
    {"target": "T1, G9a (GST-mG9a) (Mus musculus, UniProt Q9Z148)", "T1 sequence (Q9Z148 1-1263)": "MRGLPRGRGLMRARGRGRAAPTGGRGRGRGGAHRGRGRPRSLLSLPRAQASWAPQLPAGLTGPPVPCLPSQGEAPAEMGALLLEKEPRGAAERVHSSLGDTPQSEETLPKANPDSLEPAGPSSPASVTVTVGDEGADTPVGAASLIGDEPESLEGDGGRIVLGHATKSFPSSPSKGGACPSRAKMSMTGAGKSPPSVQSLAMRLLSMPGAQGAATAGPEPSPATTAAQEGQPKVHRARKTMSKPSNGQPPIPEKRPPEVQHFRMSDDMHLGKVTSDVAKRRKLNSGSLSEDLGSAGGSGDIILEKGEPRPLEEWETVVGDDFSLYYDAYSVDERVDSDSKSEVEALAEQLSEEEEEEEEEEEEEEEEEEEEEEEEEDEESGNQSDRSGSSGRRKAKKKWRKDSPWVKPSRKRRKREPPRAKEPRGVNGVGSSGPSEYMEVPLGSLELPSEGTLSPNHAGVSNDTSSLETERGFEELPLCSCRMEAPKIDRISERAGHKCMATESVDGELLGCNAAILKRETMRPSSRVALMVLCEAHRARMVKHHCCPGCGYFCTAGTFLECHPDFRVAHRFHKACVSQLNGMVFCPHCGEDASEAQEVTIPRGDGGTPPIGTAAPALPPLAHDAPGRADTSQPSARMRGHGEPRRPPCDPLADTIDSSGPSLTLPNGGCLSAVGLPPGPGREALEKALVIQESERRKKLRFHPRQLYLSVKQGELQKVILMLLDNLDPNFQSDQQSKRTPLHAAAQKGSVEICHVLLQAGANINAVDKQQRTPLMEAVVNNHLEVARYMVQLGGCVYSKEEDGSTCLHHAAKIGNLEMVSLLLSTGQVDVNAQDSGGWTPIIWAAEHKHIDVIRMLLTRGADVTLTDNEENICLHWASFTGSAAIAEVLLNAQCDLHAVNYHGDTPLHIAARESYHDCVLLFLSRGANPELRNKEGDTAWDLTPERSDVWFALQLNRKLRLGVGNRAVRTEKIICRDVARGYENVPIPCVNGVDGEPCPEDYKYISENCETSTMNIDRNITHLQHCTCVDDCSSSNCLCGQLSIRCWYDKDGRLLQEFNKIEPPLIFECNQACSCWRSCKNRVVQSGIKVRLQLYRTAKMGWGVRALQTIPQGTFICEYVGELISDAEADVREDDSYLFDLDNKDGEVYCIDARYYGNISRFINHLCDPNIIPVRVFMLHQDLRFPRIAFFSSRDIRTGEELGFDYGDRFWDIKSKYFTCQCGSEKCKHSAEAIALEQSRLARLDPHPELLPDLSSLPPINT", "experiment": "Substrate specificity / methylation of substrate compounds by G9a", "format": "biochemical", "settings": "Example 4; BocLysMCA 0.009 mM to 0.09 mM; G9a 0-0.15 μg/μL; FIG. 9", "experimental": "(§1) Distilled water was added to 10 μL of 2×HMT buffer (100 mM Tris-HCl (pH 8.5), 20 mM MgCl2, 40 mM KCl, 20 mM 2-mercaptoethanol, 500 mM sucrose), 2 μL of a BSA solution (30 μg/mL), and a predetermined concentration (final concentration: 0, 0.015, 0.05, or 0.15 μg/μL) of a histone methyltransferase (G9a) solution to adjust the total volume to 16 μL. Thereafter, the resultant solution was incubated at room temperature for 1 hour. Then, 2 μL of S-adenosylmethionine (SAM) (10 mM) and 2 μL of BocLysMCA (final concentration: 0.009 mM, 0.03 mM, or 0.09 mM) were added thereto, which was mixed and then incubated at 37° C. for 1 hour. Subsequently, 30 μL of a trypsin solution (20 mg/mL) was added thereto, followed by incubation at 37° C. for 15 minutes. The fluorescence intensity of the solution was measured at an excitation wavelength (λex) of 390 nm and a fluorescence wavelength (λem) of 460 nm.\n(§2) When G9a was adopted as a histone methyltransferase, the following method was used. 10 μL of 2×HMT buffer (100 mM Tris-HCl (pH 8.5), 20 mM MgCl2, 40 mM KCl, 20 mM 2-mercaptoethanol, 500 mM sucrose), 0.4 μL of a BSA solution (150 μg/mL), 4.5 μL of GST-mG9a (0, 0.022 to 0.66 μg/μL), and 1.1 μL of distilled water were mixed and then incubated at room temperature for 1 hour. Then, 2 μL of SAM (10 mM) and 2 μL of a peptidyl MCA solution (0.6 mM) were added thereto, which was then incubated at 37° C. for 1 hour. Thereafter, 30 μL of a trypsin solution (20 mg/mL) was added thereto, followed by incubation at 37° C. for 15 minutes. Then, the fluorescence intensity of the solution was measured at an excitation wavelength (λex) of 390 nm and a fluorescence wavelength (λem) of 460 nm. The final concentration of GST-mG9a during the measurement of fluorescence intensity was 0, 0.005, 0.015, 0.05, or 0.15 μg/μL. The results of the assay for measuring histone methyltransferase activity are shown in the left panel of FIG. 14.\n(§3) When G9a was adopted as a histone methyltransferase, the following method was used. 10 μL of 2×HMT buffer (100 mM Tris-HCl (pH 8.5), 20 mM MgCl2, 40 mM KCl, 20 mM 2-mercaptoethanol, 500 mM sucrose), 0.4 μL of a BSA solution (150 μg/mL), 3.6 μL of GST-mG9a (0, 0.028, 0.083, 0.28, 0.83 μg/μL), and 4 μL of distilled water were mixed and then incubated at room temperature for 1 hour. Then, 1 μL of SAM (20 mM) and 1 μL of a peptidyl MCA solution (1.2 mM) were added thereto, which was then incubated at 37° C. for 1 hour. Thereafter, 30 μL of a trypsin solution (20 mg/mL) was added thereto, followed by incubation at 37° C. for 15 minutes. Then, the fluorescence intensity of the solution was measured at an excitation wavelength (λex) of 390 nm and a fluorescence wavelength (λem) of 460 nm. The final concentration of GST-mG9a during the measurement of fluorescence intensity was 0, 0.005, 0.015, 0.05, or 0.15 μg/μL. The results of the assay for measuring histone methyltransferase activity are shown in the left panel of FIG. 16.\n(§4) When G9a was adopted as a histone methyltransferase, the following method was used. 10 μL of 2×HMT buffer (100 mM Tris-HCl (pH 8.5), 20 mM MgCl2, 40 mM KCl, 20 mM 2-mercaptoethanol, 500 mM sucrose), 0.4 μL of a BSA solution (150 μg/mL), 4 μL of GST-mG9a (0, 0.025 to 0.75 μg/μL), and 3.6 μL of distilled water were mixed and then incubated at room temperature for 1 hour. Then, 1 μL of SAM (final concentration: 1 mM) and 1 μL, of a peptidyl MCA solution (1.2 mM) were added thereto, which was then incubated at 37° C. for 1 hour. Thereafter, 30 μL of a trypsin solution (20 mg/mL) was added thereto, followed by incubation at 37° C. for 15 minutes. Then, the fluorescence intensity of the solution was measured at an excitation wavelength (λex) of 330 nm and a fluorescence wavelength (λem) of 380 nm or at an excitation wavelength (λex) of 390 nm and a fluorescence wavelength (λem) of 460 nm. The final concentration of GST-mG9a during the measurement of fluorescence intensity was 0, 0.005, 0.015, 0.05, or 0.15 μg/μL.", "values": [
      {"molecule": "Cc1cc(=O)oc2cc(NC(=O)C(CCCCN)NC(=O)OC(C)(C)C)ccc12", "note": "(stereo not shown) [BocLysMCA, Boc-K-MCA]", "fluorescence intensity of AMC after G9a reaction and trypsin": "decreased in a manner dependent on the concentration of the histone methyltransferase G9a"}
    ]},
    {"target": "T1, G9a (GST-mG9a)", "experiment": "Substrate specificity / methylation of substrate compounds by G9a", "format": "biochemical", "settings": "Example 6; GST-mG9a 0-0.15 μg/μL; left panel of FIG. 14", "experimental": "as §1, §2, §3, §4", "values": [
      {"molecule": "Ac-LKSK-MCA (Ac-LKSK-{AMC}; SMILES CC(=O)N[C@@H](CC(C)C)C(=O)N[C@@H](CCCCN)C(=O)N[C@@H](CO)C(=O)N[C@@H](CCCCN)C(=O)Nc1ccc2c(C)cc(=O)oc2c1; listed as Homo sapiens) [Ac-p53 (369-372)-MCA]", "methylation of peptidyl MCA by G9a": "little methylation occurred"},
      {"molecule": "Ac-ARK-MCA (Ac-Ala-Arg-Lys-{AMC}; SMILES CC(=O)N[C@@H](C)C(=O)N[C@@H](CCCNC(=N)N)C(=O)N[C@@H](CCCCN)C(=O)Nc1ccc2c(C)cc(=O)oc2c1; listed as Homo sapiens) [Ac-histone H3 (7-9/25-27)-MCA, acetyl-ARK (human histone H3 7-9 or 25-27)-MCA substrate]", "methylation of peptidyl MCA by G9a": "methylation often occurred"},
      {"molecule": "Ac-ARTKQTARK-MCA [Ac-histone H3 (1-9)-MCA]", "methylation of peptidyl MCA by G9a": "methylation often occurred"},
      {"molecule": "Ac-QTARK-MCA [Ac-histone H3 (5-9)-MCA]", "methylation of peptidyl MCA by G9a": "methylation often occurred"},
      {"molecule": "Ac-QLATKAARK-MCA (Ac-QLATKAARK-{AMC}; SMILES CC(=O)N[C@@H](CCC(N)=O)C(=O)N[C@@H](CC(C)C)C(=O)N[C@@H](C)C(=O)N[C@H](C(=O)N[C@@H](CCCCN)C(=O)N[C@@H](C)C(=O)N[C@@H](C)C(=O)N[C@@H](CCCNC(=N)N)C(=O)N[C@@H](CCCCN)C(=O)Nc1ccc2c(C)cc(=O)oc2c1)[C@@H](C)O; listed as Homo sapiens) [Ac-histone H3 (19-27)-MCA]", "methylation of peptidyl MCA by G9a": "methylation often occurred"},
      {"molecule": "Ac-ARTK-MCA (Ac-ARTK-{AMC}; SMILES CC(=O)N[C@@H](C)C(=O)N[C@@H](CCCNC(=N)N)C(=O)N[C@H](C(=O)N[C@@H](CCCCN)C(=O)Nc1ccc2c(C)cc(=O)oc2c1)[C@@H](C)O; listed as Homo sapiens) [Ac-histone H3 (1-4)-MCA]", "methylation of peptidyl MCA by G9a": "little methylation occurred"},
      {"molecule": "Ac-KAARK-MCA (Ac-KAARK-{AMC}; SMILES CC(=O)N[C@@H](CCCCN)C(=O)N[C@@H](C)C(=O)N[C@@H](C)C(=O)N[C@@H](CCCNC(=N)N)C(=O)N[C@@H](CCCCN)C(=O)Nc1ccc2c(C)cc(=O)oc2c1; listed as Homo sapiens) [Ac-histone H3 (23-27)-MCA]", "methylation of peptidyl MCA by G9a": "methylation often occurred"}
    ]},
    {"target": "T1, G9a (GST-mG9a)", "experiment": "Substrate specificity / methylation of substrate compounds by G9a", "format": "biochemical", "settings": "Example 13; AMC and peptidyl MCA fluorescence; FIGS. 25 and 26", "experimental": "as §1, §2, §3, §4", "values": [
      {"molecule": "Ac-ARTKQTARK-MCA [Ac-histone H3 (1-9)-MCA]", "methylation of peptidyl MCA by GST-mG9a": "methylates"},
      {"molecule": "Ac-KRSK-MCA (Ac-KRSK-{AMC}; SMILES CC(=O)N[C@@H](CCCCN)C(=O)N[C@@H](CCCNC(=N)N)C(=O)N[C@@H](CO)C(=O)N[C@@H](CCCCN)C(=O)Nc1ccc2c(C)cc(=O)oc2c1; listed as Homo sapiens) [Ac-ERα (299-302)-MCA]", "methylation of peptidyl MCA by GST-mG9a": "does not methylate"}
    ]}
  ]
}
